Measurements as given in patent publication US20250263504A1 (Takeda / Millennium, published 2025).

Experiments:
plasma kallikrein (pKal) = target: T1, plasma kallikrein (pKal) (UniProt P03952 20-390; P03952 391-638, limits assumed); assay: enzyme inhibition, corrected Ki,app
T1 construct: the description speaks of human pKal; also called active pKal

Factor XIIa (FXIIa) = target: T2, Factor XIIa (FXIIa) (UniProt P00748 20-372; P00748 373-615, limits assumed); assay: enzyme inhibition, corrected Ki,app
T2 construct: the description speaks of human FXIIa; also called active Factor XII
T2 sequence (looked up) 1: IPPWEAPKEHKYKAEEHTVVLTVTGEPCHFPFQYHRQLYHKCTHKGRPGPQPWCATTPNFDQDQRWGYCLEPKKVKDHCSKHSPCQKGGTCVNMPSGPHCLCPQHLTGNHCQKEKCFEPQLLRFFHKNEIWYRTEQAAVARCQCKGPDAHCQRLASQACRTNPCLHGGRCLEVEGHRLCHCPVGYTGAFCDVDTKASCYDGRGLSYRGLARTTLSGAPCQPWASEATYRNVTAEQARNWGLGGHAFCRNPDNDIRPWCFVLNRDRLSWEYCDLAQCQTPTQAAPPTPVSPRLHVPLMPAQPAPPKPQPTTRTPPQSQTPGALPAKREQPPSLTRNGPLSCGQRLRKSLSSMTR
T2 sequence (looked up) 2: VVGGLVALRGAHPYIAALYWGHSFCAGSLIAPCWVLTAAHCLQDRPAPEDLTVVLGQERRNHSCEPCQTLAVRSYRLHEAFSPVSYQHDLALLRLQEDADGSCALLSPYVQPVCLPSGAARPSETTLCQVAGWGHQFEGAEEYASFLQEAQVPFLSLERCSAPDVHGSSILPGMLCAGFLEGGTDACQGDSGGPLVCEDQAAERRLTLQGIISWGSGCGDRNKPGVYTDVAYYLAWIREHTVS

T1 sequence (P03952 20-390 limits assumed, form in doubt, chain 1 of 2): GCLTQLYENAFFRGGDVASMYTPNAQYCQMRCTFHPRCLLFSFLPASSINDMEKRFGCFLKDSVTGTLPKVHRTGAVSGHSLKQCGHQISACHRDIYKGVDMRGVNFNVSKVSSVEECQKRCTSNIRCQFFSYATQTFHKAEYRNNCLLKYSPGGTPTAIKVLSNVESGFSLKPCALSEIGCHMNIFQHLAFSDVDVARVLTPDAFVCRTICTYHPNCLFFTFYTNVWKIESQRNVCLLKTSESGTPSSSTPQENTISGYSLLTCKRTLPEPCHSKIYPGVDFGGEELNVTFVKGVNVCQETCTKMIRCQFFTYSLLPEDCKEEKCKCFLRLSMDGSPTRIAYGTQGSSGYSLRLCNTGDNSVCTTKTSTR
T1 sequence (P03952 391-638 limits assumed, form in doubt, chain 2 of 2): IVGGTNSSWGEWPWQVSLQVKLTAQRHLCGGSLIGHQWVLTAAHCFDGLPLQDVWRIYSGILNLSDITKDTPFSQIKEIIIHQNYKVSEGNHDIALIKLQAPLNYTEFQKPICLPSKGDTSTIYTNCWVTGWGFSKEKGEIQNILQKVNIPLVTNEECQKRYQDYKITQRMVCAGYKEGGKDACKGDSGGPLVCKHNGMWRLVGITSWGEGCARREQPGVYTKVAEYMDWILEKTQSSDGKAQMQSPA

B1: 620I-X0138-B06 (bispecific antibody)
heavy: not shown
light: DIQMTQSPSTLSASVGDRVTITCRASQSISSWLAWYQQKPGKAPKLLIYKASTLESGVPSRFSGSGSGTEFTLTISSLQPDDFATYYCQQYNTYWTFGQGTKVEIKRTVAAPSVFIFPPSDEQLKSGTASVVCLLNNFYPREAKVQWKVDNALQSGNSQESVTEQDSKDSTYSLSSTLTLSKADYEKHKVYACEVTHQGLSSPVTKSFNRGEC
notes: also called 620I-X138-B06
- Ki (plasma kallikrein (pKal)): 0.33 nM
- Ki (Factor XIIa (FXIIa)): 0.405 nM

B2: 620I-X0138-C07 (bispecific antibody)
heavy: not shown
light: DIQMTQSPSTLSASVGDRVTITCRASQSISSWLAWYQQKPGKAPKLLIYKASTLESGVPSRFSGSGSGTEFTLTISSLQPDDFATYYCQQYNTYWTFGQGTKVEIKRTVAAPSVFIFPPSDEQLKSGTASVVCLLNNFYPREAKVQWKVDNALQSGNSQESVTEQDSKDSTYSLSSTLTLSKADYEKHKVYACEVTHQGLSSPVTKSFNRGEC
notes: also called 620I-X138-C07
- Ki (plasma kallikrein (pKal)): 0.196 nM
- Ki (Factor XIIa (FXIIa)): 0.314 nM

B3: 620I-X0139-A11 (bispecific antibody)
heavy: not shown
light: DIQMTQSPSTLSASVGDRVTITCRASQSISSWLAWYQQKPGKAPKLLIYKASTLESGVPSRFSGSGSGTEFTLTISSLQPDDFATYYCQQYNTYWTFGQGTKVEIKRTVAAPSVFIFPPSDEQLKSGTASVVCLLNNFYPREAKVQWKVDNALQSGNSQESVTEQDSKDSTYSLSSTLTLSKADYEKHKVYACEVTHQGLSSPVTKSFNRGEC
notes: also called 620I-X139-A11
- Ki (plasma kallikrein (pKal)): 0.235 nM
- Ki (Factor XIIa (FXIIa)): 3.83 nM

B4: 620I-X0138-B07 (bispecific antibody)
heavy: not shown
light: DIQMTQSPSTLSASVGDRVTITCRASQSISSWLAWYQQKPGKAPKLLIYKASTLESGVPSRFSGSGSGTEFTLTISSLQPDDFATYYCQQYNTYWTFGQGTKVEIKRTVAAPSVFIFPPSDEQLKSGTASVVCLLNNFYPREAKVQWKVDNALQSGNSQESVTEQDSKDSTYSLSSTLTLSKADYEKHKVYACEVTHQGLSSPVTKSFNRGEC
notes: also called 620I-X138-B07
- Ki (plasma kallikrein (pKal)): 0.246 nM
- Ki (Factor XIIa (FXIIa)): 0.135 nM

B5: 620I-X0138-B10 (bispecific antibody)
heavy: not shown
light: DIQMTQSPSTLSASVGDRVTITCRASQSISSWLAWYQQKPGKAPKLLIYKASTLESGVPSRFSGSGSGTEFTLTISSLQPDDFATYYCQQYNTYWTFGQGTKVEIKRTVAAPSVFIFPPSDEQLKSGTASVVCLLNNFYPREAKVQWKVDNALQSGNSQESVTEQDSKDSTYSLSSTLTLSKADYEKHKVYACEVTHQGLSSPVTKSFNRGEC
notes: also called 620I-X138-B10
- Ki (plasma kallikrein (pKal)): 0.075 nM
- Ki (Factor XIIa (FXIIa)): 0.058 nM

B6: 620I-X0138-D11 (bispecific antibody)
heavy: not shown
light: DIQMTQSPSTLSASVGDRVTITCRASQSISSWLAWYQQKPGKAPKLLIYKASTLESGVPSRFSGSGSGTEFTLTISSLQPDDFATYYCQQYNTYWTFGQGTKVEIKRTVAAPSVFIFPPSDEQLKSGTASVVCLLNNFYPREAKVQWKVDNALQSGNSQESVTEQDSKDSTYSLSSTLTLSKADYEKHKVYACEVTHQGLSSPVTKSFNRGEC
notes: also called 620I-X138-D11
- Ki (plasma kallikrein (pKal)): 0.178 nM
- Ki (Factor XIIa (FXIIa)): 0.443 nM

B7: 620I-X0138-G12 (bispecific antibody)
heavy: not shown
light: DIQMTQSPSTLSASVGDRVTITCRASQSISSWLAWYQQKPGKAPKLLIYKASTLESGVPSRFSGSGSGTEFTLTISSLQPDDFATYYCQQYNTYWTFGQGTKVEIKRTVAAPSVFIFPPSDEQLKSGTASVVCLLNNFYPREAKVQWKVDNALQSGNSQESVTEQDSKDSTYSLSSTLTLSKADYEKHKVYACEVTHQGLSSPVTKSFNRGEC
notes: also called 620I-X138-G12
- Ki (plasma kallikrein (pKal)): 0.186 nM
- Ki (Factor XIIa (FXIIa)): 0.766 nM

B8: 620I-X0138-D06 (bispecific antibody)
heavy: not shown
light: DIQMTQSPSTLSASVGDRVTITCRASQSISSWLAWYQQKPGKAPKLLIYKASTLESGVPSRFSGSGSGTEFTLTISSLQPDDFATYYCQQYNTYWTFGQGTKVEIKRTVAAPSVFIFPPSDEQLKSGTASVVCLLNNFYPREAKVQWKVDNALQSGNSQESVTEQDSKDSTYSLSSTLTLSKADYEKHKVYACEVTHQGLSSPVTKSFNRGEC
notes: also called 620I-X138-D06
- Ki (plasma kallikrein (pKal)): 0.199 nM
- Ki (Factor XIIa (FXIIa)): 0.132 nM

B9: 620I-X0138-E03 (bispecific antibody)
heavy: not shown
light: DIQMTQSPSTLSASVGDRVTITCRASQSISSWLAWYQQKPGKAPKLLIYKASTLESGVPSRFSGSGSGTEFTLTISSLQPDDFATYYCQQYNTYWTFGQGTKVEIKRTVAAPSVFIFPPSDEQLKSGTASVVCLLNNFYPREAKVQWKVDNALQSGNSQESVTEQDSKDSTYSLSSTLTLSKADYEKHKVYACEVTHQGLSSPVTKSFNRGEC
notes: also called 620I-X138-E03
- Ki (plasma kallikrein (pKal)): 0.178 nM
- Ki (Factor XIIa (FXIIa)): 0.122 nM

B10: 620I-X0139-A01 (bispecific antibody)
heavy: not shown
light: DIQMTQSPSTLSASVGDRVTITCRASQSISSWLAWYQQKPGKAPKLLIYKASTLESGVPSRFSGSGSGTEFTLTISSLQPDDFATYYCQQYNTYWTFGQGTKVEIKRTVAAPSVFIFPPSDEQLKSGTASVVCLLNNFYPREAKVQWKVDNALQSGNSQESVTEQDSKDSTYSLSSTLTLSKADYEKHKVYACEVTHQGLSSPVTKSFNRGEC
notes: also called 620I-X139-A01
- Ki (plasma kallikrein (pKal)): 0.146 nM
- Ki (Factor XIIa (FXIIa)): 0.053 nM

B11: 620I-X0138-D05 (bispecific antibody)
heavy: not shown
light: DIQMTQSPSTLSASVGDRVTITCRASQSISSWLAWYQQKPGKAPKLLIYKASTLESGVPSRFSGSGSGTEFTLTISSLQPDDFATYYCQQYNTYWTFGQGTKVEIKRTVAAPSVFIFPPSDEQLKSGTASVVCLLNNFYPREAKVQWKVDNALQSGNSQESVTEQDSKDSTYSLSSTLTLSKADYEKHKVYACEVTHQGLSSPVTKSFNRGEC
notes: also called 620I-X138-D05
- Ki (plasma kallikrein (pKal)): 0.519 nM
- Ki (Factor XIIa (FXIIa)): 0.139 nM

B12: 620I-X0138-F05 (bispecific antibody)
heavy: not shown
light: DIQMTQSPSTLSASVGDRVTITCRASQSISSWLAWYQQKPGKAPKLLIYKASTLESGVPSRFSGSGSGTEFTLTISSLQPDDFATYYCQQYNTYWTFGQGTKVEIKRTVAAPSVFIFPPSDEQLKSGTASVVCLLNNFYPREAKVQWKVDNALQSGNSQESVTEQDSKDSTYSLSSTLTLSKADYEKHKVYACEVTHQGLSSPVTKSFNRGEC
notes: also called 620I-X138-F05
- Ki (plasma kallikrein (pKal)): 0.214 nM
- Ki (Factor XIIa (FXIIa)): 0.147 nM

B13: 620I-X0138-D03 (bispecific antibody)
heavy: not shown
light: DIQMTQSPSTLSASVGDRVTITCRASQSISSWLAWYQQKPGKAPKLLIYKASTLESGVPSRFSGSGSGTEFTLTISSLQPDDFATYYCQQYNTYWTFGQGTKVEIKRTVAAPSVFIFPPSDEQLKSGTASVVCLLNNFYPREAKVQWKVDNALQSGNSQESVTEQDSKDSTYSLSSTLTLSKADYEKHKVYACEVTHQGLSSPVTKSFNRGEC
notes: also called 620I-X138-D03
- Ki (plasma kallikrein (pKal)): 0.079 nM
- Ki (Factor XIIa (FXIIa)): 0.344 nM

B14: 620I-X0138-F02 (bispecific antibody)
heavy: not shown
light: DIQMTQSPSTLSASVGDRVTITCRASQSISSWLAWYQQKPGKAPKLLIYKASTLESGVPSRFSGSGSGTEFTLTISSLQPDDFATYYCQQYNTYWTFGQGTKVEIKRTVAAPSVFIFPPSDEQLKSGTASVVCLLNNFYPREAKVQWKVDNALQSGNSQESVTEQDSKDSTYSLSSTLTLSKADYEKHKVYACEVTHQGLSSPVTKSFNRGEC
notes: also called 620I-X138-F02
- Ki (plasma kallikrein (pKal)): 0.464 nM
- Ki (Factor XIIa (FXIIa)): 0.794 nM

B15: 620I-X0138-C12 (bispecific antibody)
heavy: not shown
light: DIQMTQSPSTLSASVGDRVTITCRASQSISSWLAWYQQKPGKAPKLLIYKASTLESGVPSRFSGSGSGTEFTLTISSLQPDDFATYYCQQYNTYWTFGQGTKVEIKRTVAAPSVFIFPPSDEQLKSGTASVVCLLNNFYPREAKVQWKVDNALQSGNSQESVTEQDSKDSTYSLSSTLTLSKADYEKHKVYACEVTHQGLSSPVTKSFNRGEC
notes: also called 620I-X138-C12
- Ki (plasma kallikrein (pKal)): 0.267 nM
- Ki (Factor XIIa (FXIIa)): 0.697 nM

B16: 620I-X0138-D04 (bispecific antibody)
heavy: not shown
light: DIQMTQSPSTLSASVGDRVTITCRASQSISSWLAWYQQKPGKAPKLLIYKASTLESGVPSRFSGSGSGTEFTLTISSLQPDDFATYYCQQYNTYWTFGQGTKVEIKRTVAAPSVFIFPPSDEQLKSGTASVVCLLNNFYPREAKVQWKVDNALQSGNSQESVTEQDSKDSTYSLSSTLTLSKADYEKHKVYACEVTHQGLSSPVTKSFNRGEC
notes: also called 620I-X138-D04
- Ki (plasma kallikrein (pKal)): 0.215 nM
- Ki (Factor XIIa (FXIIa)): 0.079 nM

B17: 620I-X0139-B10 (bispecific antibody)
heavy: not shown
light: DIQMTQSPSTLSASVGDRVTITCRASQSISSWLAWYQQKPGKAPKLLIYKASTLESGVPSRFSGSGSGTEFTLTISSLQPDDFATYYCQQYNTYWTFGQGTKVEIKRTVAAPSVFIFPPSDEQLKSGTASVVCLLNNFYPREAKVQWKVDNALQSGNSQESVTEQDSKDSTYSLSSTLTLSKADYEKHKVYACEVTHQGLSSPVTKSFNRGEC
notes: also called 620I-X139-B10
- Ki (plasma kallikrein (pKal)): 0.247 nM
- Ki (Factor XIIa (FXIIa)): 0.189 nM

B18: 620I-X0139-A12 (bispecific antibody)
heavy: not shown
light: DIQMTQSPSTLSASVGDRVTITCRASQSISSWLAWYQQKPGKAPKLLIYKASTLESGVPSRFSGSGSGTEFTLTISSLQPDDFATYYCQQYNTYWTFGQGTKVEIKRTVAAPSVFIFPPSDEQLKSGTASVVCLLNNFYPREAKVQWKVDNALQSGNSQESVTEQDSKDSTYSLSSTLTLSKADYEKHKVYACEVTHQGLSSPVTKSFNRGEC
notes: also called 620I-X139-A12
- Ki (plasma kallikrein (pKal)): 2.05 nM
- Ki (Factor XIIa (FXIIa)): 4.08 nM

B19: 620I-X0138-E05 (bispecific antibody)
heavy: not shown
light: DIQMTQSPSTLSASVGDRVTITCRASQSISSWLAWYQQKPGKAPKLLIYKASTLESGVPSRFSGSGSGTEFTLTISSLQPDDFATYYCQQYNTYWTFGQGTKVEIKRTVAAPSVFIFPPSDEQLKSGTASVVCLLNNFYPREAKVQWKVDNALQSGNSQESVTEQDSKDSTYSLSSTLTLSKADYEKHKVYACEVTHQGLSSPVTKSFNRGEC
notes: also called 620I-X138-E05
- Ki (plasma kallikrein (pKal)): 0.186 nM
- Ki (Factor XIIa (FXIIa)): 0.245 nM

B20: 620I-X0139-D12 (bispecific antibody)
heavy: not shown
light: DIQMTQSPSTLSASVGDRVTITCRASQSISSWLAWYQQKPGKAPKLLIYKASTLESGVPSRFSGSGSGTEFTLTISSLQPDDFATYYCQQYNTYWTFGQGTKVEIKRTVAAPSVFIFPPSDEQLKSGTASVVCLLNNFYPREAKVQWKVDNALQSGNSQESVTEQDSKDSTYSLSSTLTLSKADYEKHKVYACEVTHQGLSSPVTKSFNRGEC
notes: also called 620I-X139-D12
- Ki (plasma kallikrein (pKal)): 0.428 nM
- Ki (Factor XIIa (FXIIa)): 0.383 nM
